This is an account of results in PMC8589321 (Science Advances, 2021).

The target in the test is T1, complex I subunit ND1 (Yarrowia lipolytica) (Yarrowia lipolytica, UniProt Q9B6E8 1-341).
T1 sequence (looked up): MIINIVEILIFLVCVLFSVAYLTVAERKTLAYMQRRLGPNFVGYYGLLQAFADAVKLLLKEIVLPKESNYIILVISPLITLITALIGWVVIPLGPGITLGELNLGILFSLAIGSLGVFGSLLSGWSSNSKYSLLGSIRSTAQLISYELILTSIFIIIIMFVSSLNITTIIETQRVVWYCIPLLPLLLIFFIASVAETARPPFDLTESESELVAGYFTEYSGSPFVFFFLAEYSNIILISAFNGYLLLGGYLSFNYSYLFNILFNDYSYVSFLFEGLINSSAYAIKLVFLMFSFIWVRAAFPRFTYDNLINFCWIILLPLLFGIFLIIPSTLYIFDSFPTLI
Nature of the test: cryo-EM structure.

B1: complex I subunit ND6 (Yarrowia lipolytica) (natural protein, UniProt Q9B6E9 1-185, looked up)
chain: MMYLTYYFIEITIFLAILCTIFIISAKNPMVSILYMIALFVIAAMYLYLIGLGIFSLLYIMIYIGAIAVLFLFIITLLDINSTELSVKSNIRDLPLVLISLIVLTISGLMIYSNDSILINKLLEAFGNDYNTIITQDWFNIENTTLLTTIGNVLLTNNAFILLVLAIVLLLGIIGPISITMKHKE
For B1, the binding result is “binds”.
